{"source": "the RNAGym collection of RNA variant scans (doi:10.1093/molbev/msab373)", "parents": {"B1": {"name": "Azoarcus group I ribozyme (parent)", "chain": "GUGCCUUGCGCCGGGAAACCACGCAAGGGAUGGUGUCAAAUUCGGCGAAACCUAAGCGCCCGCCCGGGCGUAUGGCAACGCCGAGCCAAGCUUCGGCGCCUGCGCCGAUGAAGGUGUAGAGACUAGACGGCACCCACCUAAGGCAAACGCUAUGGUGAAGGCAUAGUCCAGGGAGUGGCGAAAGUCACACAAACCGG"}}}
{"variants_of": "B1", "experiment": "reverse-splicing fitness (ratio to wild type); higher = more active; in vitro selection; Mg2+ level not given", "summary_of_the_method": "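An in vitro group I ribozyme library with randomized positions was T7-transcribed and gel-purified. In triplicate, 10 pmol RNA in EPPS pH 7.5 was reacted with 50 pmoles of a 30-nt RNA substrate for 1 h at 37 °C across several added MgCl2 levels (1–48 mM), then stopped with EDTA. Products were reverse transcribed from a substrate-complementary primer, PCR-amplified and sequenced (HiSeq 4000). Fitness is a variant's read proportion after selection over that before, normalised to wild type.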"}
{"variant": "C82U A111G A120G A145C C150G C169G U176G", "reverse-splicing fitness": 0.00399}
{"variant": "C82U A111G A120G A145U C150G C169G U176G", "reverse-splicing fitness": 0.00427}
{"variant": "C82U A111G A120G A145U C150G C169G U176C", "reverse-splicing fitness": 0.00487}
{"variant": "C82U A111G A120G A145U C150G C169G U176A", "reverse-splicing fitness": 0.00667}
{"variant": "C82U A111G A120G A145G C150G C169A U176A", "reverse-splicing fitness": 0.0123}
{"variant": "C82U A111G A120G A145G C150G C169A U176C", "reverse-splicing fitness": 0.0117}
{"variant": "C82U A111G A120G A145G C150G C169A U176G", "reverse-splicing fitness": 0.00756}
{"variant": "C82U A111G A120C C150U C169A U176G", "reverse-splicing fitness": 0.00397}
{"variant": "C82U A111G A120C C150U C169A U176A", "reverse-splicing fitness": 0.0164}
{"variant": "C82U A111G A120C C150U C169A U176C", "reverse-splicing fitness": 0.011}
{"variant": "C82U A111G A120G A145C C150G U176C", "reverse-splicing fitness": 0.00614}
{"variant": "C82U A111G A120G A145C C150G U176G", "reverse-splicing fitness": 0.00261}
{"variant": "C82U A111G A120G A145C C150G U176A", "reverse-splicing fitness": 0.00404}
{"variant": "C82U A111G A120G A145U C150A C169G", "reverse-splicing fitness": 0.00754}
{"variant": "C82U A111G A120G A145U C150A C169U", "reverse-splicing fitness": 0.00646}
{"variant": "C82U A111G A120G A145U C150A C169A", "reverse-splicing fitness": 0.00822}
{"variant": "C82U A111G A120G A145U C169G U176G", "reverse-splicing fitness": 0.00372}
{"variant": "C82U A111G A120G A145U C169G U176C", "reverse-splicing fitness": 0.0118}
{"variant": "C82U A111G A120G A145U C169G U176A", "reverse-splicing fitness": 0.0112}
{"variant": "C82U A111G A120C C150G C169G U176C", "reverse-splicing fitness": 0.00429}
{"variant": "C82U A111G A120C C150G C169G U176A", "reverse-splicing fitness": 0.00718}
{"variant": "C82U A111G A120C C150G C169G U176G", "reverse-splicing fitness": 0.00467}
{"variant": "C82U A111G A120G A145C C150U C169U", "reverse-splicing fitness": 0.00745}
{"variant": "C82U A111G A120G A145C C150U C169A", "reverse-splicing fitness": 0.0078}
{"variant": "C82U A111G A120G A145C C150U C169G", "reverse-splicing fitness": 0.00844}
{"variant": "C82U A111G A120G A145C C150A U176A", "reverse-splicing fitness": 0.00929}
{"variant": "C82U A111G A120G A145C C150A U176G", "reverse-splicing fitness": 0.00354}
{"variant": "C82U A111G A120G A145C C150A U176C", "reverse-splicing fitness": 0.00818}
{"variant": "C82U A111G A120G", "reverse-splicing fitness": 0.0173}
{"variant": "C82U A111G A120C C169G", "reverse-splicing fitness": 0.00773}
{"variant": "C82U A111G A120C C169A", "reverse-splicing fitness": 0.00806}
{"variant": "C82U A111G A120C C169U", "reverse-splicing fitness": 0.0118}
{"variant": "C82U A111G A120C A145U C169A U176C", "reverse-splicing fitness": 0.00627}
{"variant": "C82U A111G A120C A145U C169A U176A", "reverse-splicing fitness": 0.00844}
{"variant": "C82U A111G A120C A145U C169A U176G", "reverse-splicing fitness": 0.00329}
{"variant": "C82U A111G A120C C150A C169G", "reverse-splicing fitness": 0.0102}
{"variant": "C82U A111G A120C C150A C169A", "reverse-splicing fitness": 0.0107}
{"variant": "C82U A111G A120C C150A C169U", "reverse-splicing fitness": 0.0114}
{"variant": "C82U A111G A120G A145C C169A U176C", "reverse-splicing fitness": 0.00572}
{"variant": "C82U A111G A120G A145C C169A U176A", "reverse-splicing fitness": 0.011}
{"variant": "C82U A111G A120G A145C C169A U176G", "reverse-splicing fitness": 0.00366}
{"variant": "C82U A111G A120G A145C C150U C169U U176A", "reverse-splicing fitness": 0.0196}
{"variant": "C82U A111G A120G A145C C150U C169U U176C", "reverse-splicing fitness": 0.0091}
{"variant": "C82U A111G A120G A145C C150U C169U U176G", "reverse-splicing fitness": 0.00413}
{"variant": "C82U A111G A120G A145G C150G U176G", "reverse-splicing fitness": 0.00546}
{"variant": "C82U A111G A120G A145G C150G U176C", "reverse-splicing fitness": 0.00856}
{"variant": "C82U A111G A120G A145G C150G U176A", "reverse-splicing fitness": 0.00637}
{"variant": "C82U A111G A120G A145G C169A", "reverse-splicing fitness": 0.0117}
{"variant": "C82U A111G A120G A145G C169U", "reverse-splicing fitness": 0.011}
{"variant": "C82U A111G A120G A145G C169G", "reverse-splicing fitness": 0.0129}
{"variant": "C82U A111G A120C A145U C150U C169G U176C", "reverse-splicing fitness": 0.0121}
{"variant": "C82U A111G A120C A145U C150U C169G U176A", "reverse-splicing fitness": 0.0133}
{"variant": "C82U A111G A120C A145U C150U C169G U176G", "reverse-splicing fitness": 0.00414}
{"variant": "C82U A111G A120C A145U C150G", "reverse-splicing fitness": 0.00964}
{"variant": "C82U A111G A120C A145U C150U", "reverse-splicing fitness": 0.0338}
{"variant": "C82U A111G A120C A145U C150A", "reverse-splicing fitness": 0.0105}
{"variant": "C82U A111G A120G C150A", "reverse-splicing fitness": 0.00982}
{"variant": "C82U A111G A120C A145U C150G C169U", "reverse-splicing fitness": 0.00776}
{"variant": "C82U A111G A120C A145U C150G C169G", "reverse-splicing fitness": 0.00698}
{"variant": "C82U A111G A120C A145U C150G C169A", "reverse-splicing fitness": 0.00804}
{"variant": "C82U A111G A120C A145U C150G C169G U176A", "reverse-splicing fitness": 0.0063}
{"variant": "C82U A111G A120C A145U C150G C169G U176C", "reverse-splicing fitness": 0.00388}
{"variant": "C82U A111G A120C A145U C150G C169G U176G", "reverse-splicing fitness": 0.00386}
{"variant": "C82U A111G A120G A145U C169A U176C", "reverse-splicing fitness": 0.00896}
{"variant": "C82U A111G A120G A145U C169A U176A", "reverse-splicing fitness": 0.0102}
{"variant": "C82U A111G A120G A145U C169A U176G", "reverse-splicing fitness": 0.00425}
{"variant": "C82U A111G A120G A145G C150A C169A U176C", "reverse-splicing fitness": 0.0196}
{"variant": "C82U A111G A120G A145G C150A C169A U176G", "reverse-splicing fitness": 0.00545}
{"variant": "C82U A111G A120G A145G C150A C169A U176A", "reverse-splicing fitness": 0.0174}
{"variant": "C82U A111G A120G A145C C150G C169G", "reverse-splicing fitness": 0.00713}
{"variant": "C82U A111G A120G A145C C150G C169A", "reverse-splicing fitness": 0.00854}
{"variant": "C82U A111G A120G A145C C150G C169U", "reverse-splicing fitness": 0.00741}
{"variant": "C82U A111G A120C A145U C150A C169U", "reverse-splicing fitness": 0.00709}
{"variant": "C82U A111G A120C A145U C150A C169A", "reverse-splicing fitness": 0.00739}
{"variant": "C82U A111G A120C A145U C150A C169G", "reverse-splicing fitness": 0.00798}
{"variant": "C82U A111G A120C C150G C169A U176G", "reverse-splicing fitness": 0.00578}
{"variant": "C82U A111G A120C C150G C169A U176A", "reverse-splicing fitness": 0.00865}
{"variant": "C82U A111G A120C C150G C169A U176C", "reverse-splicing fitness": 0.0113}
{"variant": "C82U A111G A120G A145G C150G C169U U176G", "reverse-splicing fitness": 0.00643}
{"variant": "C82U A111G A120G A145G C150G C169U U176A", "reverse-splicing fitness": 0.0114}
{"variant": "C82U A111G A120G A145G C150G C169U U176C", "reverse-splicing fitness": 0.0105}
{"variant": "C82U A111G A120G A145G C150G C169G U176C", "reverse-splicing fitness": 0.011}
{"variant": "C82U A111G A120G A145G C150G C169G U176G", "reverse-splicing fitness": 0.00529}
{"variant": "C82U A111G A120G A145G C150G C169G U176A", "reverse-splicing fitness": 0.00945}
